In patent US12383631B2, “Immune antigen specific IL-18 immunocytokines and uses thereof” (Bright Peak Therapeutics AG, priority 2022, dated 2025) one finds EC50 data, which are given here for 1 substance.

pEC50: −log10 of the molar value.

Test [1] has as its target T1, NK92 cells (Homo sapiens, UniProt O95256+Q13478).
T1 sequence (Q13478 19-541): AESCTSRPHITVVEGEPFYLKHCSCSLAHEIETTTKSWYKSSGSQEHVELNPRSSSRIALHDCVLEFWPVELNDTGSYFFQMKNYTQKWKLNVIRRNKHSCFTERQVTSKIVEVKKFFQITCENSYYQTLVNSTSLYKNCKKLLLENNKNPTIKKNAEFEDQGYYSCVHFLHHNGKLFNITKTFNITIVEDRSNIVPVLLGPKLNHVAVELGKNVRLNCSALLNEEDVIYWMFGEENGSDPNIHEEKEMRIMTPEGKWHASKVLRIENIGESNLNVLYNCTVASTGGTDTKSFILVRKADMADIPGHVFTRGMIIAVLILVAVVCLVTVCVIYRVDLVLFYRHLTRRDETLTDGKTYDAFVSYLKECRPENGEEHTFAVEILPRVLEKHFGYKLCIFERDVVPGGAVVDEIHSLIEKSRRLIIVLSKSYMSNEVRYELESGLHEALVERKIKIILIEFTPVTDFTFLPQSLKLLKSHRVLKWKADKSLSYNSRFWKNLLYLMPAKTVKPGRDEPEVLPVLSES
T1 sequence (O95256 20-599): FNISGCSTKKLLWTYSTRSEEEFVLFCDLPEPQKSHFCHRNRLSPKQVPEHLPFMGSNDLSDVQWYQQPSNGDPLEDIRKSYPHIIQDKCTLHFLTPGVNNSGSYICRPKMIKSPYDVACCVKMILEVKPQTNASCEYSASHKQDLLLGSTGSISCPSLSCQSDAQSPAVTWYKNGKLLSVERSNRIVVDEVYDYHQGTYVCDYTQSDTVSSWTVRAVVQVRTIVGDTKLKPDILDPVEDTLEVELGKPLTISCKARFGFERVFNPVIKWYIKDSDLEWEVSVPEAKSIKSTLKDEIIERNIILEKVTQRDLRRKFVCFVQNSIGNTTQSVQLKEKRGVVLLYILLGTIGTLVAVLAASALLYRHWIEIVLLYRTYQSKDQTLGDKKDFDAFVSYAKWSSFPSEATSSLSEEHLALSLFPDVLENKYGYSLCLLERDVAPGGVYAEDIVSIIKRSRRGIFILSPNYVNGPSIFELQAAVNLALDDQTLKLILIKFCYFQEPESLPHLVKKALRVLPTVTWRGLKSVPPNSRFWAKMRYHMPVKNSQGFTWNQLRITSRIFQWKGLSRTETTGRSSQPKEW
In words: IFN gamma secretion assay in NK92 cells (Example 10). The test is classed as cell-based. The note with it: 1 ng/ml IL-12, 16-20 h, read-out: EC50 IFNγ secretion NK92 assay. On the procedure:
The IFNγ-secretion stimulating activity of the unconjugated IL-18 variants and corresponding IL-18 immunocytokines was evaluated on NK92 cell line. The NIK cell line NK-92 derived from a patient with lymphoma (ATCC, Cat #CRL-2407) was cultured in aMIEM medium supplemented with 12.5% FCS, 12.5% horse serum (HS), 50 uM B-mercaptoEthanol, and 2 ng/ml of recombinant Human Interleukin-2 (IL-2).
On the day of experiment, cells were harvested and washed with aNMEM medium without IL-2 and resuspended in medium (w/o IL-2) containing 1 ng/ml of recombinant human Interleukin-12 (Sinofliologicals, Cat #CT011-H08H). After counting, cells were seeded at 100 000 cells/well in a 384 well titer plate and incubated at 37° C./5% CO2. […]
After 16-20 h incubation at 37° C./5% CO2, 5 μl of supernatant were carefully transferred to a 384 microwells OPTIPlate (Perkin Elmer; Cat #6007270) and Interferon-gamma (IFNγ) levels measured using the Human IFNγ AlphaLISA Assay Kit (Perkin Elmer, Cat #AL217C). […] AlphaLisa signal was then measured on an Enspire plate reader (Perkin Elmer) using 680 and 615 nm as excitation and emission wavelengths respectively. Half maximal effective concentration (EC50) was calculated based on a variable slope, four parameter analysis using GraphPad PRISM software.

The subject of test [2] is PD-1 positive (transduced) KG-1 cells. The test can be described thus: IFN gamma secretion assay in PD-1 transduced KG-1 cells (Example 11). The test is classed as cell-based, human. The note with it: IFNγ secretion, PD-1 transduced KG-1 cells, 20-24 h. On the procedure: The KG-1 cell line was used to generate a PD-1 expressing cell line and furthermore, to measure IFNγ release upon incubation with TL-18 variants and corresponding TL-18 immunocytokines.
PD-1 expressing cell line generation: Briefly, KG-1 cells were transduced using lentiviral particles carrying the human PD-1 gene (PDCD1 NM_005018; Origene, CAT #: RC210364L3V) at a MOI (Multiplicity of Infection) of 30. Spinfection was performed at 1260 g during 90 min at 37° C. in the presence of 5 μg/ml of Polybrene and 10 mM of HEPES in complete culture media (RPMI, 10% FBS, 1% L-Glutamine). Five days after transduction, puromycin at a final concentration of 1 μg/ml was added to select for PD-1 positive cells. For culture maintenance, puromycin concentration was decreased to 0.5 μg/ml. Stable and homogenous expression of PD-1 was verified by surface staining (BD Pharmingen, #557860).
IFNγ release was assessed in PD-1 positive (transduced) KG-1 cells, as well as in the parental PD-1 negative cells. 0.5×10^5 cells were seeded into a 96-well U-bottom plate in culture media (RPMI, 10% FBS, […]) and stimulated with IL-18 variants/ICs for 20-24 h. The test items were diluted to 100 nM in culture medium, followed by 7 10-fold serial dilutions. The lowest concentration assessed was […]. After incubation, IFNγ release was measured using the LEGENDplex custom human mix and match KIT (Biolegend LEGENDplex™ Human IFN-γ Capture Bead B5, 13×#740942, LEGENDplex™ P 1 Essential Immune Response Panel Detection Abs, #740931, LEGENDplex™ Buffer Set A #740368). To this end, cell culture supernatant was collected and diluted 1:1 with Assay Buffer. Fluorescence measurements were done with a Quanteon Flow Cytometer from Acea Biosciences. For analysis, MFI values (median fluorescence intensity) were exported and plotted against concentrations used. The EC50 values (half maximal effective concentration) were calculated based on a variable slope and four parameter analysis using GraphPad PRISM software version 9.

Consider “Composition B: immunocytokine: Atezolizumab/Tecentriq (anti-PD-L1) conjugated to IL-18 polypeptide SEQ ID NO: 30”, for which the pEC50 in test [1] is 12.00; in test [2], 11.44.

Usually pEC50 stands for the negative decadic logarithm of the EC50, by convention in mol/L.
